Our source for the Km, kcat and kcat/Km values is PMC8528806, “Enzyme promiscuity in natural environments: alkaline phosphatase in the ocean” (The ISME Journal, 2021).

Data set [1] concerns the target T1, PhoA (APase; MADE1013045) (Alteromonas mediterranea, UniProt F2G8N3).
T1 construct: gene MADE_1013045; full-length 1467-bp synthetic gene, pETM-14, N-terminal His6-PreScission 3C, tag cleaved, expressed in E. coli BL21(DE3)
T1 sequence (F2G8N3 1-488): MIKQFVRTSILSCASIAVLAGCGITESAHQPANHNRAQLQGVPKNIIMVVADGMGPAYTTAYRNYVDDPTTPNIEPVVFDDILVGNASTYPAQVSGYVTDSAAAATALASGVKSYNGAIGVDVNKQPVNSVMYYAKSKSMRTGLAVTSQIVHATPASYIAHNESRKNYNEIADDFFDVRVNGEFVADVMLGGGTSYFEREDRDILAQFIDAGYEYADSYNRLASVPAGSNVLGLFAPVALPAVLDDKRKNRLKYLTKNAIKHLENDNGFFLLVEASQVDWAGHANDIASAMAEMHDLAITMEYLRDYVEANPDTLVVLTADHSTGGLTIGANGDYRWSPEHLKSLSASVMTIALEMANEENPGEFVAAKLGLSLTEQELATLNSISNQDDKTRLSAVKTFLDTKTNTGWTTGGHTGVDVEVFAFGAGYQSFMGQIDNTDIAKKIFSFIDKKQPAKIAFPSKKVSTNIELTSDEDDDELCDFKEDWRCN
The experiment in a line: p-nitrophenol release, absorbance […] nm, Michaelis-Menten fit. Conditions: read-out: KM (μmol l^-1); 100 mM Tris pH 8.2, 24 °C, 100 µM MgCl2; 10 nM enzyme. It is filed as biochemical.

Substrate in data set [2]: O=[N+]([O-])c1ccc(OP(=O)(O)Oc2ccc([N+](=O)[O-])cc2)cc1
The experiment in a line: purified protein. Format: biochemical, Alteromonas mediterranea. Conditions: 100 mM Tris pH 8.2, 24 °C, 100 µM MgCl2, 10 nM enzyme.

Substrate in data set [3]: O=[N+]([O-])c1ccc(OP(=O)(O)O)cc1
The data set is described as follows: purified protein. Format: biochemical, Alteromonas mediterranea. Conditions: 100 mM Tris pH 8.2, 24 °C, 100 µM MgCl2, 1 nM enzyme, text rounds KM to 90 µM.

In the case of `COP(=O)(OC)Oc1ccc([N+](=O)[O-])cc1` [Paraoxon-methyl], the Km in data set [1] was 15 nM.

B1: PhoA (APase; MADE1013045) (Alteromonas mediterranea DE) (protein)
chain: MIKQFVRTSILSCASIAVLAGCGITESAHQPANHNRAQLQGVPKNIIMVVADGMGPAYTTAYRNYVDDPTTPNIEPVVFDDILVGNASTYPAQVSGYVTDSAAAATALASGVKSYNGAIGVDVNKQPVNSVMYYAKSKSMRTGLAVTSQIVHATPASYIAHNESRKNYNEIADDFFDVRVNGEFVADVMLGGGTSYFEREDRDILAQFIDAGYEYADSYNRLASVPAGSNVLGLFAPVALPAVLDDKRKNRLKYLTKNAIKHLENDNGFFLLVEASQVDWAGHANDIASAMAEMHDLAITMEYLRDYVEANPDTLVVLTADHSTGGLTIGANGDYRWSPEHLKSLSASVMTIALEMANEENPGEFVAAKLGLSLTEQELATLNSISNQDDKTRLSAVKTFLDTKTNTGWTTGGHTGVDVEVFAFGAGYQSFMGQIDNTDIAKKIFSFIDKKQPAKIAFPSKKVSTNIELTSDEDDDELCDFKEDWRCN
notes: full-length 1467-bp synthetic gene, pETM-14, N-terminal His6-PreScission 3C, tag cleaved, expressed in E. coli BL21(DE3)
Turning to B1, in “purified protein [2]”, the Km worked out at 0.3 ± 0.1 µmol/L, the kcat was determined as 0.017 ± 0.001 s⁻¹ and the kcat/Km amounted to 55000 ± 8000 M⁻¹ s⁻¹. In the data set “purified protein [3]”, the Km amounted to 94 ± 35 µmol/L, the kcat stood at 0.5 ± 0.03 s⁻¹ and the kcat/Km is 4800 ± 800 M⁻¹ s⁻¹.

By Km is commonly meant the substrate concentration at which the rate is half of its maximum. As a reminder, the kcat is the maximal rate divided by the concentration of active sites. What is called kcat/Km is the second-order rate constant that governs catalysis at low substrate concentration.
